Biological target: CD94-NKG2A-mFc singlechain (human)
Assay: SPR, scCD94/NKG2A chip saturated with humZ270 10 µg/ml, then HLA-E tetramer 8 µg/ml (competitor: HLA-E tetramer)

CD94-NKG2A-mFc singlechain (human), sequence (chain, as listed by the source): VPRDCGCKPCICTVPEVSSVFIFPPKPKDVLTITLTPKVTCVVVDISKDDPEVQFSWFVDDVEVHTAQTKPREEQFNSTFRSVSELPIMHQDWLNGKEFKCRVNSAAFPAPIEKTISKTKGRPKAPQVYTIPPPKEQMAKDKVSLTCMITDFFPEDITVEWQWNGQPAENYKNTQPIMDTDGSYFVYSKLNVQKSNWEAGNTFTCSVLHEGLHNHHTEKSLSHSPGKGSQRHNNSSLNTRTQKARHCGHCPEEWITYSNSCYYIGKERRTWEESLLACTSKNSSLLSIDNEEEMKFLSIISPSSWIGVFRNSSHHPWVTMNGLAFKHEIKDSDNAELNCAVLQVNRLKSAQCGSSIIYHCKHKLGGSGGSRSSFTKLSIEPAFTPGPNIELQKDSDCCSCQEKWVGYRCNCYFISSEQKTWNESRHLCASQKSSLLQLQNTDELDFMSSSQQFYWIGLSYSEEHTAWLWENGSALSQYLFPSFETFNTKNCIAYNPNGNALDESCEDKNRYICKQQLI

humZ270 (antibody) was tested. Which percentage of inhibition of HLA-E tetramer binding did it give?
Its percentage of inhibition of HLA-E tetramer binding is 81.8%.

Source: patent US20090281035A1
